This note sets out measurements from patent publication US7439329B2, “GEF-H1b: biomarkers, complexes assays and therapeutic uses thereof” (Sugen, Inc., priority 2002, dated 2008).

Test [1] concerns the target T1, PAK4 (Homo sapiens, UniProt O96013).
T1 construct: Glutathione-s-transferase (GST) fused PAK4 (residues 291-591); GST (N); made in house
Kind of test: In vitro kinase assay, phosphorylation of substrates by PAK4. The following applies: autoradiography. It is filed as biochemical. As to the method: Next examined, was whether GEF-H1 is a PAK4 substrate. In vitro kinase assays were performed using a GEF-H1 GST-fusion protein, a Maguin-2-like GST-fusion protein and GST control protein as substrates for phosphorylation by PAK4.
The cDNA encoding GEF-H1S obtained in the phage display screen was excised and subcloned into pGEX-4T expression vector to allow for recombinant production of protein for in vitro experiments. The GEF-H1S protein was then mixed with PAK4 kinase and incubated such that PAK4 phosphorylated the GEF-H1S. A portion of this kinase reaction was separated by SDS-PAGE and autoradiographed to visualize the extent of phosphorylation. […] SDS-PAGE is a universal protein separation and visualization technique that is described in Laemmli, Nature, 227(259):680-5, 1970.
From the phosphorylation experiments described above, two peptides of GEF-H1S were identified as being targets for PAK4-induced phosphorylation. The GEF-H1S target residues were identified by aligning the PAK4 activation loop peptide with the GEF-H1S polypeptide sequence amino acids 762 to 921.
The following phosphoisomers (phosphate-modified GEF-H1S peptides) were used in PAK4 kinase assays to determine which residues were specifically phosphorylated. Because certain residues were modified to comprise a phosphate moiety (the underlined residues below), they could not be phosphorylated by PAK4.
Glutathione-s-transferase (GST) fused PAK4 (residues 291-591), GEF-H1 amino acids 763-921 (from phage clone 13.8 sequence, matches KIAA0651) and Maguin 2-like (from phage clone 13.32, sequence matches accession # XP-087831) were purified by standard procedures and as previously described 31. Amino acid sequence of peptides spanning GEF-H1b 807-824 #1008 (RRRSLPAGDALYLpSFNPP) (SEQ ID NO: 28), #1009 (RRRpSLPAGDALYLSFNPP) (SEQ ID NO: 29), #1010 (RRRSLPAGDALpYLSFNPP ) (SEQ ID NO: 30) and #934 (RRRSLPAGDALYLSFNPP) (SEQ ID NO: 3) used for in vitro kinase assays. In vitro kinase reactions were run as described previously 31.

Test [2] addresses T2, GEF-H1S (Homo sapiens, UniProt Q92974, INS962GETLAETWTR).
T2 sequence (Q92974 with tags, fused parts or gaps): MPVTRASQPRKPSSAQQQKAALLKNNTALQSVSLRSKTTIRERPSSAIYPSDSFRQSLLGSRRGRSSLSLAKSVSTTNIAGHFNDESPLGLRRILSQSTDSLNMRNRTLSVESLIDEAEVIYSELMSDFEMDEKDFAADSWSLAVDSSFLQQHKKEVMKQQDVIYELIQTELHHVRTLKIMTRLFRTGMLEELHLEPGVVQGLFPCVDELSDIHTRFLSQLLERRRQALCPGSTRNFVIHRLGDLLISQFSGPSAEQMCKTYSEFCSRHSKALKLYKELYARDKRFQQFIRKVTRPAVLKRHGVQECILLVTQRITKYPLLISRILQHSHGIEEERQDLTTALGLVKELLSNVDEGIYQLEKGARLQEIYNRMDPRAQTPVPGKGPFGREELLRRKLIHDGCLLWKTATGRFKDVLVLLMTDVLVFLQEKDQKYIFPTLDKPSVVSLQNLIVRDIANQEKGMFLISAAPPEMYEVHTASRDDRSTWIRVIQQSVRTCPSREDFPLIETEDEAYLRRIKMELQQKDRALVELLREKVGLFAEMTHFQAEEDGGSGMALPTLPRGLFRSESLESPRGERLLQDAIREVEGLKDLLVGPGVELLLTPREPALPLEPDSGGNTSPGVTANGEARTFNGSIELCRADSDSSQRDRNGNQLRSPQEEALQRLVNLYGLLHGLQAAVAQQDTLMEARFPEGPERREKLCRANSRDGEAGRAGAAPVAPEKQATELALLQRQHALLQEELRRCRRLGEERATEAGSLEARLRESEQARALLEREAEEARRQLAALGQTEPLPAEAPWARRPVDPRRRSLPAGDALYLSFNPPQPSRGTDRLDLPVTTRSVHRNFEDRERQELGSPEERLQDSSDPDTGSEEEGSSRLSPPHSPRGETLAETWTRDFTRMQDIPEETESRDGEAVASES
The experiment in a line: Pull-down of GEF-H1 with PAK4 domains and biotinylated PAK4 peptides. Type of test: binding. The following applies: biotinylated PAK4 peptides linked to streptavidin beads. As to the method: FIG. 1: (SEQ ID NOs 32-34 respectively in order of appearance) Direct binding of GEF-H1 to PAK4. Lysates were prepared from 293T cells over expressing (a) myc tagged PAK4 alleles or subdomains and incubated with GST, GST-GEF-H1 (787-921) and GST-Maguin-like bound to Glutathione beads (1,2,3,4 bead designation) or (b) GFP-GEF-H1 and incubated with PAK4 biotinylated peptides (291-355) and (276-324) linked to streptavidin beads. An equivalent amount of beads and excess lysates (500 ug) were used. Eluates of beads and total lysates were analysed by SDS-PAGE and immunoblotted with myc or GEF-H1 antiserum; (c) represents a PAK4 gene schematic outlining the regions of PAK4 used to identify the GEF-H1 interaction domain (GID). d, alignment of the GID defined by the minimal binding region of PAK4 with PAK5 and PAK6.
To confirm the in vitro interaction of GEF-H1S with PAK4, bacterially expressed GST-fusion proteins were generated with the identical sequences isolated by phage display, encoding either amino acids 763-921 of GEF-H1S or amino acids 385-555 from the Maguin-2-like protein. These fusion proteins were bound to glutathione beads and utilized in binding assays with 293T lysates expressing exogenous PAK4.
Biotinylated peptides derived from the N-terminal region of PAK4 sequence were used to further map the GEF-H1 binding site. […]

T1 sequence (O96013 291-591): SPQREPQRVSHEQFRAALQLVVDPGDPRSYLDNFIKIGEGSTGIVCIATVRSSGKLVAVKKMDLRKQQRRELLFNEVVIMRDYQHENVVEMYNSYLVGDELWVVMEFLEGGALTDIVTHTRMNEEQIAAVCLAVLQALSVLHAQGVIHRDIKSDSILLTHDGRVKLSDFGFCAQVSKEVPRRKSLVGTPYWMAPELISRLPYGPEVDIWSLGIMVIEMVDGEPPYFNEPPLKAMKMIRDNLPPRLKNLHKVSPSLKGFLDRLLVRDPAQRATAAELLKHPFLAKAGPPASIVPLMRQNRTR

For “RRRSLPAGDALYLSFNPP [amino acids 807-824, GEF-H1S peptide surrounding Ser 810]”, the “phosphorylation by PAK4 in vitro” value in test [1] is recorded as “high affinity substrate”.

As for “CTPAAPAVPAVPGPPGPRSPQREPQRVSHEQFRAALQLVVDPGDPRSYLDNF (biotin) [amino acids 276-324]”, the “interaction with GEF-H1S” value in test [2] is reported as “strong interaction”.

Take “RQSLLGSRRGRSSLSLAK [GEF-H1 residues 55-72]”: in test [1], the “phosphorylation by PAK4 in vitro” value is reported as “phosphorylated”.

As to PRRRSLPAGDALYLSFNPP, the “phosphorylation by PAK4 in vitro” value in test [1] is on record as “phosphorylated”.
